Assay results: article PMC9080902 (Journal of thrombosis and haemostasis : JTH, 2021)

B1: GST-fused PH domain of kindlin-1 (374–496) (domain or fragment, UniProt Q9BQL6 374-496, looked up)
chain: DNLKLFRPKKLLPKAFKQYWFIFKDTSIAYFKNKELEQGEPLEKLNLRGCEVVPDVNVAGRKFGIKLLIPVADGMNEMYLRCDHENQYAQWMAACMLASKGKTMADSSYQPEVLNILSFLRMK
B2: GST-fused PH domain of kindlin-3 (351–476) (domain or fragment, UniProt Q86UX7-2 351-476, looked up)
chain: ELKDHLRIFRPRKLTLKGYRQHWVVFKETTLSYYKSQDEAPGDPIQQLNLKGCEVVPDVNVSGQKFCIKLLVPSPEGMSEIYLRCQDEQQYARWMAGCRLASKGRTMADSSYTSEVQAILAFLSLQ
B3: GST-fused PH domain of kindlin-2 (374–499) (domain or fragment, UniProt Q96AC1 374-499, looked up)
chain: ELADYIKVFKPKKLTLKGYKQYWCTFKDTSISCYKSKEESSGTPAHQMNLRGCEVTPDVNISGQKFNIKLLIPVAEGMNEIWLRCDNEKQYAHWMAACRLASKGKTMADSSYNLEVQNILSFLKMQ

Molecular target: flag-tagged paxillin (UniProt P49023 1-591)
Assay: BLI

Sequence of flag-tagged paxillin (P49023 whole entry): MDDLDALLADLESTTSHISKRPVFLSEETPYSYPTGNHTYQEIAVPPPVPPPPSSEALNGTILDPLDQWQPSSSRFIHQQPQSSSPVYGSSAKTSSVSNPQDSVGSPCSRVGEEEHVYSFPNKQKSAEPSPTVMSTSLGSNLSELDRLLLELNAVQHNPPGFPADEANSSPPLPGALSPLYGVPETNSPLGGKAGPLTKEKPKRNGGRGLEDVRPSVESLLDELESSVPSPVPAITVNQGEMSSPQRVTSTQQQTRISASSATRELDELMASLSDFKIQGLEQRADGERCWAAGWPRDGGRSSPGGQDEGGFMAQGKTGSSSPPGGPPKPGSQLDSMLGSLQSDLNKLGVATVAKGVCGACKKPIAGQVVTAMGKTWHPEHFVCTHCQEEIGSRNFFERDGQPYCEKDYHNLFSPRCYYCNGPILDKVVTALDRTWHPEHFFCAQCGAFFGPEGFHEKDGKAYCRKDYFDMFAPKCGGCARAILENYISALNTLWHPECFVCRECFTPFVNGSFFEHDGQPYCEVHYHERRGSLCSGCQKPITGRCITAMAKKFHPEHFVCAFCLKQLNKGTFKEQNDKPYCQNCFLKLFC

Binder | Kd [µM]
B1 | 14.2
B2 | 7.6
B3 | 23.5
